Measurements: publication PMC6016253, “The ICP27 Homology Domain of the Human Cytomegalovirus Protein UL69 Adopts a Dimer-of-Dimers Structure” (mBio, 2018)

Biological target: the molecule itself
Test: SEC-MALS; 0.5 ml at 1 mg/ml on Superdex 200 10/300 GL, 0.75 ml/min; 20 mM HEPES, 150 mM NaCl, 50 mM L-Arg, 50 mM L-Glu, 1 mM TCEP, pH 7.9

Protein | stoichiometry N
UL69long (HCMV UL69 residues 200 to 540) (domain or fragment, UL69 of human cytomegalovirus (HCMV), 744 amino acids; residues 200 to 540: ICP27 homology domain plus an N-terminal region conserved only in betaherpesviruses; gene synthesis, codon optimized; HRV3C protease-cleavable N-terminal thioredoxin tag plus Strep-tag; also called UL69 tetramer; not shown: thioredoxin, N-terminal, cleaved) GPQQQQMLALIDDELDAMDEDELQQLSRLIEKKKRARLQRGAASSGTSPSSTSPVYDLQRYTAESLRLAPYPADLKVPTAFPQDHQPRGRILLSHDELMHTDYLLHIRQQFDWLEEPLLRKLVVEKIFAVYNAPNLHTLLAIIDETLSYMKYHHLHGLPVNPHDPYLETVGGMRQLLFNKLNNLDLGCILDHQDGWGDHCSTLKRLVKKPGQMSAWLRDDVCDLQKRPPETFSQPMHRAMAYVCSFSRVAVSLRRRALQVTGTPQFFDQFDTNNAMGTYRCGAVSDLILGALQCHECQNEMCELRIQRALAPYRFMIAYCPFDEQSLLDLTVFAGTTTTTA | 4
UL69short (HCMV UL69 residues 248 to 536) (domain or fragment, UL69 of human cytomegalovirus (HCMV), 744 amino acids; residues 248 to 536: ICP27 homology domain only; gene synthesis, codon optimized; HRV3C protease-cleavable N-terminal thioredoxin tag plus Strep-tag; not shown: thioredoxin, N-terminal, cleaved) PSSTSPVYDLQRYTAESLRLAPYPADLKVPTAFPQDHQPRGRILLSHDELMHTDYLLHIRQQFDWLEEPLLRKLVVEKIFAVYNAPNLHTLLAIIDETLSYMKYHHLHGLPVNPHDPYLETVGGMRQLLFNKLNNLDLGCILDHQDGWGDHCSTLKRLVKKPGQMSAWLRDDVCDLQKRPPETFSQPMHRAMAYVCSFSRVAVSLRRRALQVTGTPQFFDQFDTNNAMGTYRCGAVSDLILGALQCHECQNEMCELRIQRALAPYRFMIAYCPFDEQSLLDLTVFAGTT | 2
